Experiments:
[1] = target: NTD and CC region of CYK-4 (residues 1 to 120) (C. elegans); assay: crystal structure
[2] = target: dimerization domain of ZEN-4 (residues 530 to 601) (C. elegans); assay: crystal structure

Substance: NTD and CC region of CYK-4 (residues 1 to 120) (domain or fragment)
- stoichiometry N [1]: 2

Substance: dimerization domain of ZEN-4 (residues 530 to 601) (domain or fragment)
- stoichiometry N [2]: 2
